Key:
rat MC3-R = molecular target: T1, rat MC3-R (Rattus norvegicus, UniProt P32244); experiment: α-MSH activation of rat MC3-R in transfected 293 cells (adenylyl cyclase); type: cell-based; conditions: agouti 0.7 nM
T1 construct: expressed in transfected cells; host or cells: 293 cells

[1] = system: A7r5 vascular smooth muscle cells; experiment: [Ca2+]i in A7r5 vascular smooth muscle cells (fura 2); type: cell-based; conditions: 400 s, n = 8
Protocol: The spontaneously fusing L6 skeletal muscle cells [American Type Culture Collection (ATCC), Bethesda, MD] were grown in 75-cm^2 flasks in Dulbecco's modified Eagle's medium with 10% glucose (DMEM) supplemented with 5% fetal bovine serum (FBS, vol/vol), 5% calf serum supplemented iron enriched (CS, vol/vol, and antibiotics (50 U penicillin/ml and 5 μg of streptomycin/ml). Cultures were maintained in continuous passages (<20) by trypsinization (0.05% trypsin) of semiconfluent nonfused cells. A7r5 vascular smooth muscle cells (ATCC) were grown in the same conditions as for L6 cells. 3T3-L1 cells (ATCC) were grown in 100-mm dishes in DMEM containing 10% FBS and antibiotics. For differentiation of fibroblasts into adipocytes, confluent cells were incubated in DMEM-FBS containing 0.5 mM 3-isobutyl-1-methylxanthine (IBMX; Sigma, St. Louis, Mo.) and 0.25 μM dexamethasone (Dex; Sigma) for 60 h. […]
[Ca^2+]i was measured in L6, A7r5, and HEK-293 cells (Zemel et al., 1995) as previously described and in 3T3-L1 cells as described by Klip and Ramlal (1987). […] [Ca^2+]i levels were then measured fluorometrically in suspensions using dual excitation (340 and 380 nm)-single emission (510 nm) fluorometry as previously described (Zemel et al., 1995). [Ca^2+]i was then calculated by the computer in the fluorometer with the equation of Grynkiewicz et al. (1985). […]

3T3-L1 adipocytes = experiment: lipogenesis in 3T3-L1 adipocytes (FAS and SCD mRNA, FAS activity, triglyceride content); type: cell-based
untransfected 293 cells = experiment: adenylyl cyclase assay in untransfected 293 cells; type: cell-based, human; conditions: agouti 0.7 nM
Protocol: 293 cells (5×10^5) and 293 cells expressing human TSH-R were preloaded with 5 μCi ^3H-adenine for 1.5 h at 37° C. in a 5% CO2 incubator.
Medium was aspirated and 2.5% perchloric acid containing 0.1 mM cAMP was used to stop the incubation. Adenylyl cyclase activity was calculated by determining the percent conversion of ^3H-adenine to ^3H-cAMP as described (Salomon, 1991; Johnson and Salomon, 1991). Correlation of cAMP accumulation measured in this assay with actual adenylyl cyclase activity is made under the assumption that isobutymethylxanthine effectively blocks cAMP degradation. Data represent means and standard deviations from triplicate data points.

murine MSH-R = molecular target: T2, murine MSH-R (Mus musculus, UniProt Q01727); experiment: α-MSH activation of murine MSH-R in stably transfected 293 cells (adenylyl cyclase); type: cell-based; conditions: agouti 0.7 nM
T2 construct: expressed in transfected cells; host or cells: 293 cells, stably transfected
T2 sequence (Q01727 whole entry): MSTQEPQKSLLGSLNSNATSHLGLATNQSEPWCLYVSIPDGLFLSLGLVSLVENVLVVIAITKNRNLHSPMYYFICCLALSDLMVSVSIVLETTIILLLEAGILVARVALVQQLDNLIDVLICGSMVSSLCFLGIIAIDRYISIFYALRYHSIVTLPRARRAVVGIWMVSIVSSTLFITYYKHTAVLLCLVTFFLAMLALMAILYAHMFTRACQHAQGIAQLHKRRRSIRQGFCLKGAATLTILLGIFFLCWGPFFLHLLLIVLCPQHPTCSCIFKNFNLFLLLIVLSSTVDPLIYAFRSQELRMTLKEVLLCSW

T1 sequence (P32244 whole entry): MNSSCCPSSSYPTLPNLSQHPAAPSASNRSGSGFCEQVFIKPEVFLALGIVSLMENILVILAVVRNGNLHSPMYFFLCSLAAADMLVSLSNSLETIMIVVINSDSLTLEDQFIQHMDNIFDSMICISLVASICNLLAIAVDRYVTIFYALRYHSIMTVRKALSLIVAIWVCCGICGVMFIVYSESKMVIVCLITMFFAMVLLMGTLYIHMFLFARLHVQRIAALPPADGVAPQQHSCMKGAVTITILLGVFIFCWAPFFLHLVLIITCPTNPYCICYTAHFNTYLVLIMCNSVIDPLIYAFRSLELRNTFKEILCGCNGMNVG

B1: agouti: recombinant mouse agouti protein (131 amino acids, SEQ ID NO:2) produced with the baculovirus expression system in T. ni cells (protein, listed as Mus musculus)
chain: MDVTRLLLATLVSFLCFFTVHSHLALEETLGDDRSLRSNSSMNSLDFSSVSIVALNKKSKKISRKEAEKRKRSSKKKASMKKVARPPPPSPCVATRDSCKPPAPACCDPCASCQCRFFGSACTCRVLNPNC
What does the source list for B1?
antagonism of receptor activation (rat MC3-R): did not antagonize; [Ca2+]i Increase over Baseline ([1]; 5 nM Agouti): 74 ± 6 nM; [Ca2+]i Increase over Baseline ([1]; 25 nM Agouti): 46 ± 9 nM; increase in FAS mRNA levels (3T3-L1 adipocytes; 48 h treatment): 1.5 fold; increase in SCD mRNA levels (3T3-L1 adipocytes; 48 h treatment): 4 fold; cellular triglyceride content (3T3-L1 adipocytes; agouti, 48 h): 0.104±0.008 mg triglycerides/mg protein; effect on basal adenylyl cyclase levels (untransfected 293 cells): no effect; maximally induced activity of the receptor (murine MSH-R): did not alter
